Measured values published in patent US12227551B2, “Membrane bound IL12 compositions and methods for tunable regulation” (Obsidian Therapeutics, Inc., priority 2018, dated 2025).

Legend:
CD19+ Nalm6 tumors [1] = test: Nalm6-Luc tumor burden by BLI, mean total flux, NSG mice given CAR-T cells (Example 9; Table 28); type: in vivo
Procedure: (§1) The study was designed to determine if membrane bound IL12 (mbIL12) expressed on CAR-T cells via a CD8 TM domain and CD8 Hinge Region promotes CAR T cell expansion in cis, promotes non-CAR-T cell expansion in trans, and/or increases in vivo CAR T cell efficacy against CD19+ Nalm6 tumors. To test in vivo anti-tumor activity, experiments were performed in NSG mice. Nalm6 cells were transfected with Redifect Red-Fluc (Perkin Elmer) under selection using Puromycin for ˜2 months to generate a line that stably expresses the luciferase reporter; thereafter named Nalm6-Luc. Ten days before tumor implantation, Nalm6-Luc cells were thawed and cultured in puromycin-containing media. On day 0, cells were counted, resuspended in PBS and injected into NSG mice via tail vein. On day 6, mice were imaged for bioluminescent intensity (BLI) and sorted into groups based on their tumor size ensuring that all groups had the same sized tumors. Human T cells were transduced with one of the following constructs as shown in the study design in Table 27:
(§2) Next, holding total CAR+ T cell dose constant at either 300,000 or 1 million cells per animal, transduced T cells were intravenously infused into mice on day 7. Tumors were monitored in mice using BLI and the mean of the Total Flux (photons/second) was calculated for each group as an indicator of tumor burden (Table 28). In order to track the trans effect of IL12 expressing CART cells on T cells that lack expression of IL12, 5 million GFP+ T cells (negative for IL12) were co-infused with the IL12-expressing CAR+ T cells, and peripheral blood draws taken over time to evaluate the effect of IL12 on phenotypic changes in GFP+ T cells by flow cytometry analysis.

[2] = Body weight and clinical signs of GVHD, Nalm6-Luc NSG model (Example 9; Table 30); type: in vivo, NSG mice; conditions: in g (unit assumed)
Procedure: as §1
The amount of body weight loss appeared to correlate with the levels of plasma IL12 detected at earlier timepoints (Table 31).

[3] = test system: CAR+ T cells and GFP+ T cells; test: CAR-T and GFP+ T cell expansion in peripheral blood by flow cytometry (Example 9; Table 32); type: in vivo, NSG mice; conditions: cell numbers in 50 uL blood
Procedure: as §2
Thus, anti-tumor efficacy (Table 28) appears to correlate with CAR-T cell expansion.

[4] = Plasma IL12 and IFNgamma levels (Example 10; Table 36); type: in vivo, NSG mice; conditions: day 14 post T cell transfer; 1 million CAR+ T cells
Procedure: as §1, with “To” for “The study was designed to determine if membrane bound IL12 (mbIL12) expressed on CAR-T cells via a CD8 TM domain and CD8 Hinge Region promotes CAR T cell expansion in cis, promotes non-CAR-T cell expansion in trans, and/or increases in vivo CAR T cell efficacy against CD19+ Nalm6 tumors. To”, “ensure” for “ensuring”, “33:” for “27:”
Thus, anti-tumor efficacy (Table 34) appears to correlate with plasma IL12 and IFNgamma levels.

CD19+ Nalm6 tumors [5] = test: Nalm6-Luc tumor burden by BLI, mean total flux, NSG mice, B7.1 TM mbIL12 constructs (Example 10; Table 34); type: in vivo
Procedure: as §1, with “To” for “The study was designed to determine if membrane bound IL12 (mbIL12) expressed on CAR-T cells via a CD8 TM domain and CD8 Hinge Region promotes CAR T cell expansion in cis, promotes non-CAR-T cell expansion in trans, and/or increases in vivo CAR T cell efficacy against CD19+ Nalm6 tumors. To”, “ensure” for “ensuring”, “33:” for “27:”
as §2, with “at” for “at either 300,000 or”, “34).” for “28).”, “on” for “on T cells”, “10” for “5”

[6] = day 27 post tumor implant, day 20 post T cell transfer
[7] = day 41 post tumor implant, day 34 post T cell transfer

B1: OT-001356: CD19 CAR; stop; IRES; secreted IL12 (p40 23-328; (G4S)3; p35 57-253); nucleic acid SEQ ID NO: 482 (protein)
chain: IWELKKDVYVVELDWYPDAPGEMVVLTCDTPEEDGITWTLDQSSEVLGSGKTLTIQVKEFGDAGQYTCHKGGEVLSHSLLLLHKKEDGIWSTDILKDQKEPKNKTFLRCEAKNYSGRFTCWWLTTISTDLTFSVKSSRGSSDPQGVTCGAATLSAERVRGDNKEYEYSVECQEDSACPAAEESLPIEVMVDAVHKLKYENYTSSFFIRDIIKPDPPKNLQLKPLKNSRQVEVSWEYPDTWSTPHSYFSLTFCVQVQGKSKREKKDRVFTDKTSATVICRKNASISVRAQDRYYSSSWSEWASVPCSGGGGSGGGGSGGGGSRNLPVATPDPGMFPCLHHSQNLLRAVSNMLQKARQTLEFYPCTSEEIDHEDITKDKTSTVEACLPLELTKNESCLNSRETSFITNGSCLASRKTSFMMALCLSSIYEDLKMYQVEFKTMNAKLLMDPKRQIFLDQNMLAVIDELMQALNFNSETVPQKSSLEEPDFYKTKIKLCILLHAFRIRAVTIDRVMSYLNASGS
CD19+ Nalm6 tumors [1]; day 6 post tumor implant, day −1 post T cell transfer (before infusion), cell dose not given
  Mean Total Flux (Nalm-6 Tumor Burdon): 1069500 photons/second
CD19+ Nalm6 tumors [1]; day 13 post tumor implant, day 6 post T cell transfer
  Mean Total Flux (Nalm-6 Tumor Burdon): 17363750 photons/second
CD19+ Nalm6 tumors [1]; day 20 post tumor implant, day 13 post T cell transfer
  Mean Total Flux (Nalm-6 Tumor Burdon): 555500 photons/second
CD19+ Nalm6 tumors [1]; [6]
  Mean Total Flux (Nalm-6 Tumor Burdon): 769125 photons/second
CD19+ Nalm6 tumors [1]; day 34 post tumor implant, day 27 post T cell transfer
  Mean Total Flux (Nalm-6 Tumor Burdon): 743125 photons/second
CD19+ Nalm6 tumors [1]; [7]
  Mean Total Flux (Nalm-6 Tumor Burdon): 716750 photons/second
[2]; day 6 post tumor implant (before T cell infusion)
  body weight: 19.6125
[2]; day 13 post tumor implant
  body weight: 20.5125
[2]; day 20 post tumor implant
  body weight: 20.5875
[2]; day 27 post tumor implant
  body weight: 22.2125
[2]; day 34 post tumor implant
  body weight: 21.8875
[2]; day 41 post tumor implant
  body weight: 19.93
[3]; cell dose 0.3 ×10e6
  Cis Effect: Numbers of CAR+ Cells on Day 14: 1402.64
  Trans Effect: Numbers of GFP+ Cells on Day 14: 400.00
[3]; cell dose 1 ×10e6
  Cis Effect: Numbers of CAR+ Cells on Day 14: 3789.89
  Trans Effect: Numbers of GFP+ Cells on Day 14: 332.75
[4]
  Day 14 Plasma IFNgamma Levels: 13,344 pg/mL
  Day 14 Plasma IL10 Levels: 6.9 pg/mL
  Day 14 Plasma IL 12 Levels: 2,434 pg/mL
CD19+ Nalm6 tumors [5]; day 6 post tumor implant, day −1 post T cell transfer (before infusion), 1 million CAR+ T cells
  Mean Total Flux (Nalm-6 Tumor Burdon): 2667500 photons/second
CD19+ Nalm6 tumors [5]; day 15 post tumor implant, day 8 post T cell transfer
  Mean Total Flux (Nalm-6 Tumor Burdon): 72220000 photons/second
CD19+ Nalm6 tumors [5]; day 19 post tumor implant, day 12 post T cell transfer
  Mean Total Flux (Nalm-6 Tumor Burdon): 3141750 photons/second
CD19+ Nalm6 tumors [5]; day 22 post tumor implant, day 15 post T cell transfer
  Mean Total Flux (Nalm-6 Tumor Burdon): 1001125 photons/second
CD19+ Nalm6 tumors [5]; [6]
  Mean Total Flux (Nalm-6 Tumor Burdon): 991750 photons/second
CD19+ Nalm6 tumors [5]; day 30 post tumor implant, day 23 post T cell transfer
  Mean Total Flux (Nalm-6 Tumor Burdon): 797000 photons/second
CD19+ Nalm6 tumors [5]; day 33 post tumor implant, day 26 post T cell transfer
  Mean Total Flux (Nalm-6 Tumor Burdon): 887000 photons/second
CD19+ Nalm6 tumors [5]; day 36 post tumor implant, day 29 post T cell transfer
  Mean Total Flux (Nalm-6 Tumor Burdon): 627875 photons/second
CD19+ Nalm6 tumors [5]; [7]
  Mean Total Flux (Nalm-6 Tumor Burdon): 697500 photons/second
